Data as given in paper doi:10.1101/2020.10.30.342212.
Read-outs that look alike come from different tables or passages of the source.

Assays:
[1] = molecular target: PrgL_(32-208)-His, soluble C-terminal NTF2-like domain of PrgL (Enterococcus faecalis (plasmid pCF10)); assay: SEC-MALS
[2] = molecular target: PrgL_(32-208)-His, soluble C-terminal NTF2-like domain of PrgL (Enterococcus faecalis (plasmid pCF10)); assay: SEC-MALS; remark: listed apart in the source
[3] = molecular target: full-length PrgL-GFP (Enterococcus faecalis (plasmid pCF10)); assay: SEC
[4] = molecular target: full-length PrgL-His (Enterococcus faecalis (plasmid pCF10)); assay: cross-linking

Question: For “PrgL_(32-208)-His, soluble C-terminal NTF2-like domain of PrgL (domain or fragment)”, which stoichiometry N [1] is on record?
Answer: The stoichiometry N was 2.

Question: What about the stoichiometry N [2] of the same substance?
Answer: Its stoichiometry N is 10 to 12.

Question: For full-length PrgL-GFP (natural protein), which stoichiometry N [3] is on record?
Answer: The stoichiometry N was 2.

Question: For full-length PrgL-His (natural protein), which stoichiometry N [4] is on record?
Answer: The stoichiometry N was 2.
